The text below walks through data of paper PMC5674874 (The Journal of Cell Biology, 2017).

Residue numbers refer to the chain shown, from its start.

Experiment [1] deals with T1, Stu2-WT-Flag (S. cerevisiae, UniProt P46675 1-888).
T1 sequence (looked up): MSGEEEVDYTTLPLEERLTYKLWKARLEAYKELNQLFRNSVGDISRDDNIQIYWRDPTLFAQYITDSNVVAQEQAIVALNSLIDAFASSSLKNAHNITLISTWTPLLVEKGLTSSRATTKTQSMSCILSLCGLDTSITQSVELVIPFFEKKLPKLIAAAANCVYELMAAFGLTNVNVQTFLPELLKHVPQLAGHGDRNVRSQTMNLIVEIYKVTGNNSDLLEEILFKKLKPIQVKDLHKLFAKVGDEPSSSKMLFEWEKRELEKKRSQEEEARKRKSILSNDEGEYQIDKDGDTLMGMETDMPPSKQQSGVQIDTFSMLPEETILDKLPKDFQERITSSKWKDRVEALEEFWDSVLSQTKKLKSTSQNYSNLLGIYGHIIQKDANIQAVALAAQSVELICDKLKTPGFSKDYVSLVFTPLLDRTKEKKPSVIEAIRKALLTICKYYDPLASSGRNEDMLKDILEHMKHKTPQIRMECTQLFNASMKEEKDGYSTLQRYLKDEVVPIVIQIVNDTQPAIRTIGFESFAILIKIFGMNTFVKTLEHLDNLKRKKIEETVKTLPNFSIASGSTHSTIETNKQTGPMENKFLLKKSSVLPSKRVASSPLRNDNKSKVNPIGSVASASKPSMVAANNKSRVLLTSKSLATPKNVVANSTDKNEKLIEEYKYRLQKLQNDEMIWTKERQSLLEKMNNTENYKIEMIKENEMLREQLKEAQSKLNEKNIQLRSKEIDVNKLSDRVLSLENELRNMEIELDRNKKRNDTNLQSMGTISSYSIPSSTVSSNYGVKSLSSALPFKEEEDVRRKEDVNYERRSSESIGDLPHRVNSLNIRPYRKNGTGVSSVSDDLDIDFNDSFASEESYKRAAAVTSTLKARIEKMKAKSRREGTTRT
Put plainly: SEC. For orientation: SEC sorts molecules by how far they enter the pores of the column.

Experiment [2] has as its target T2, Stu2-2D-Flag (S. cerevisiae, UniProt P46675 1-888, S813D | S815D).
T2 sequence (looked up): T1 sequence (looked up) with S813D, S815D
Nature of the experiment: SEC.

B1: Bik1 (recombinant, from StrepII-TEV-Bik1) (natural protein, S. cerevisiae, UniProt P11709 1-440, looked up)
chain: MDRYQRKIGCFIQIPNLGRGQLKYVGPVDTKAGMFAGVDLLANIGKNDGSFMGKKYFQTEYPQSGLFIQLQKVASLIEKASISQTSRRTTMEPLSIPKNRSIVRLTNQFSPMDDPKSPTPMRSFRITSRHSGNQQSMDQEASDHHQQQEFGYDNREDRMEVDSILSSDRKANHNTTSDWKPDNGHMNDLNSSEVTIELREAQLTIEKLQRKQLHYKRLLDDQRMVLEEVQPTFDRYEATIQEREKEIDHLKQQLELERRQQAKQKQFFDAENEQLLAVVSQLHEEIKENEERNLSHNQPTGANEDVELLKKQLEQLRNIEDQFELHKTKWAKEREQLKMHNDSLSKEYQNLSKELFLTKPQDSSSEEVASLTKKLEEANEKIKQLEQAQAQTAVESLPIFDPPAPVDTTAGRQQWCEHCDTMGHNTAECPHHNPDNQQFF
For the molecule B1, the binding result in experiment [1] and in experiment [2] was “binds” each time.
